According to US9744220B2, “Compositions and methods for treating inflammatory diseases” (priority 2013, dated 2017):

System: primary cardiomyocytes
Assay: sPDNF stimulation of primary cardiomyocytes, chemokine transcripts by qPCR
Type: cell-based, mouse
Details: 3 hr, dose-dependent
Procedure: FIG. 7A is a graph depicting MCP-1 and FKN expression in cardiomyocytes of mice infected with T cruzi. FIG. 7B is a graph depicting MCP-1 and FKN expression in cardiac fibroblasts of mice infected with T cruzi. T cruzi infection: Primary cultures of mouse cardiomyocytes (FIG. 7A) and cardiac fibroblasts (FIG. 7B) were plated in 6-well plates, infected with T cruzi Tulahuen strain (MOI=10) for 3, 24, and 72 hr, and MCP-1 and FKN transcripts were quantified by qPCR. Chemokine gene expression was normalized to HPRT and fold change calculated relative to uninfected cells. Points represent mean±SD fold change expression of triplicate samples. The experiment was repeated, and similar results were obtained. FIG. 7C is a graph depicting MCP-1 and FKN expression in cardiomyocytes of mice injected with sPDNF. FIG. 7D is a graph depicting MCP-1 and FKN expression in cardiac fibroblasts of mice injected with sPDNF. sPDNF stimulation: Primary cardiomyocytes (FIG. 7C) and cardiac fibroblasts (FIG. 7D) were plated in 6-well plates, serum starved overnight, then stimulated with the indicated concentration of sPDNF (3 hr), and MCP-1 and FKN transcripts were quantified by qPCR. Chemokine gene expression was normalized to HPRT and fold change calculated relative to vehicle-treated cells; *P<0.05, **P<0.01, and ***P<0.005. […]

B1: sPDNF: N-terminal short-form of T cruzi PDNF that contains Trk-binding sites, recombinant; amino acids 1-588 of SEQ ID NO: 2; JR-100 is the commercial name (protein, listed as Trypanosoma cruzi)
chain: MGKTVVVASRMFWLMFFVPLLLAICPSEPAYALAPGSSRVELFKRKNSTVPFEDKAGKVTERVVHSFRLPALVNVDGVMVAIADARYDTSNDNSLIDTVAKYSVDDGETWETQIAIKNSRVSSVSRVVDPTVIVKGNKLYVLVGSYYSSRSYWSSHGDARDWDILLAVGEVTKSTAGGKITASIKWGSPVSLKKFFPAEMEGMHTNQFLGGAGVAIVASNGNLVYPVQVTNKKKQVFSKIFYSEDDGKTWKFGKGRSDFGCSEPVALEWEGKLIINTRVDWKRRLVYESSDMEKPWVEAVGTVSRVWGPSPKSNQPGSQSSFTAVTIEGMRVMLFTHPLNFKGRWLRDRLNLWLTDNQRIYNVGQVSIGDENSAYSSVLYKDDKLYCLHEINTDEVYSLVFARLVGELRIIKSVLRSWKNWDSHLSSICTPADPAASSSESGCGPAVTTVGLVGFLSGNASQNVWEDAYRCVNASTANAERVRNGLKFAGVGGGALWPVSQQGQNQRYRFANHAFTLVASVTIHEAPRAASPLLGASLDSSGGKKLLGLSYDEKHQWQPIYGSTPVTPTGSWETGKRYHLVLTMANKI
- FKN transcripts: increase
- MCP-1 transcripts: increase
